Patent US12576154B2, “Conjugates of PSMA-binding moieties with cytotoxic agents” (PHILOCHEM AG, priority 2022, dated 2026)

Test system: HT1080.hPSMA tumor
Assay: MMAE release at different time points in HT1080.hPSMA tumor model (Conjugate 7 vs Conjugate 1)
Type: in vivo, mice
Procedure: HT1080.hPSMA tumor cells were grown to 90% confluence and detached with Trypsin-EDTA 0.05%. Cells were resuspended in Hank's Balanced Salt Solution (HBSS) at a 5×10^7 cells/mL density. 100 μL of HT1080.hPSMA cells (5×10^6 cells) were injected subcutaneously in the right flank of female athymic Balb/c AnNRj-Foxn1 mice (6 to 8 weeks of age). Tumors were grown until ˜250 mm^3 volume (average).
0.1 mL of a 50 μM solution (2% DMSO, PBS, 250 nmol/kg) of Conjugate 7 was injected intravenously into the tail vein of the mice. The animals were sacrificed after 6 h, 24 h, 48 h, or 72 h (n=3/group), and blood and the following organs were extracted: HT1080.hPSMA tumor, heart, lungs, liver, kidney, spleen, stomach. The blood fraction was centrifuged, and the plasma (supernatant) was extracted. The organs were stored at −80° C. before being used for further analysis.
Frozen plasma (50 μL) and mouse tissues (˜50 mg) were thawed, and 500 μL of PBS was added. Samples were kept on ice, and 50 μL solution of internal standard (d8-MMAE, 50 nM) was added. Samples were then homogenized at 4° C. with a tissue lyser for 2 minutes at 30 Hz for 4 cycles. After homogenization, samples were centrifuged (21'000 g, 10 min). Subsequently, 100 μL of supernatants were collected and added to 900 μL of acetonitrile (ACN) to induce protein precipitation. After centrifugation (21'000 g, 10 min), 800 μL of supernatants were collected and dried at room temperature with a vacuum centrifuge. Pellets were then resuspended in 20 μL of an aqueous solution containing 3% ACN and 0.1% of HCOOH, and 5 μL were injected into the UHPLC-MS system. […] Peak areas of analytes and internal standards were integrated, and corresponding ratios were calculated. The ratios were then transformed into pmol/g of wet tissue using single-concentration external calibration points and corrected by the total weight of the sample analysed. The percentage of injected dose per gram (% ID/g) was finally calculated by normalizing the value based on the total dose injected into the mouse. […]

## CC[C@H](C)[C@@H]([C@@H](CC(=O)N1CCC[C@H]1[C@H](OC)[C@@H](C)C(=O)N[C@H](C)[C@@H](O)c1ccccc1)OC)N(C)C(=O)[C@@H](NC(=O)[C@H](C(C)C)N(C)C(=O)OCc1ccc(NC(=O)[C@@H]2CCCN2C(=O)CNC(=O)CCCCCN2C(=O)CC(SC[C@H](N)C(=O)NCCCCCC(=O)NC[C@H]3CC[C@H](C(=O)N[C@@H](Cc4ccc5ccccc5c4)C(=O)NCCCC[C@H](NC(=O)N[C@@H](CCC(=O)O)C(=O)O)C(=O)O)CC3)C2=O)cc1)C(C)C (stereo partly drawn) [Conjugate 1]
6 h after i.v. 250 nmol/kg, n=3
  MMAE release at 6 h: 200 pmol/g
24 h after i.v. 250 nmol/kg, n=3
  MMAE release at highest accumulation point (average): approx. 300 pmol/g
i.v. 250 nmol/kg, time points 6, 24, 48, 72 h
  Time of highest accumulation point of released MMAE: 24 h
